These results are taken from patent publication US20240376151A1, “STAPLED PEPTIDES AND METHODS THEREOF” (FOG PHARMACEUTICALS, INC., priority 2022, published 2024).

One test addresses T1, CUL4B (Homo sapiens, UniProt Q13620, L520D/V516R).
T1 construct: GST-TEV (N, cleaved yes); made in house; host or cells: E. coli BL21 CodonPlus
T1 sequence (Q13620 206-557 V516R/L520D): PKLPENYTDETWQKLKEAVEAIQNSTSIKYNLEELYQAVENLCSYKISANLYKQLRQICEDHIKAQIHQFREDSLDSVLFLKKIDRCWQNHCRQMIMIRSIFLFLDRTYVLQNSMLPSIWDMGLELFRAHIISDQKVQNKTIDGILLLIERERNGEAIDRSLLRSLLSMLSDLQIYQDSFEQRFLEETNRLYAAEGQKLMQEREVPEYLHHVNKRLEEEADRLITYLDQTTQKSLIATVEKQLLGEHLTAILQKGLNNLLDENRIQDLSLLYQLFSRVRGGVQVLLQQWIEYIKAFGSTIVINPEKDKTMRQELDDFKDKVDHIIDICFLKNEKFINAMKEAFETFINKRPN
Kind of test: Naive Library Presenter Screening (phage, NGS), CUL4B. Format: binding. The conditions noted are these: for interaction data at Target Concentration 10: CUL4B target concentration 10 nM; for interaction data at Target Concentration 30: CUL4B target concentration 30 nM; for interaction data at Target Concentration 100: CUL4B target concentration 100 nM; for interaction data at Target Concentration 300: CUL4B target concentration 300 nM; for interaction data at Target Concentration 1000: CUL4B target concentration 1000 nM.

Another test deals with T2, CUL1 (Homo sapiens, UniProt Q13616, L371D/V367R).
T2 construct: CUL1 (Uniprot ID: Q13616, residue 15-410, V367R/L371D); GST-TEV (N, cleaved yes); made in house; host or cells: E. coli BL21 CodonPlus
T2 sequence (Q13616 15-410 V367R/L371D): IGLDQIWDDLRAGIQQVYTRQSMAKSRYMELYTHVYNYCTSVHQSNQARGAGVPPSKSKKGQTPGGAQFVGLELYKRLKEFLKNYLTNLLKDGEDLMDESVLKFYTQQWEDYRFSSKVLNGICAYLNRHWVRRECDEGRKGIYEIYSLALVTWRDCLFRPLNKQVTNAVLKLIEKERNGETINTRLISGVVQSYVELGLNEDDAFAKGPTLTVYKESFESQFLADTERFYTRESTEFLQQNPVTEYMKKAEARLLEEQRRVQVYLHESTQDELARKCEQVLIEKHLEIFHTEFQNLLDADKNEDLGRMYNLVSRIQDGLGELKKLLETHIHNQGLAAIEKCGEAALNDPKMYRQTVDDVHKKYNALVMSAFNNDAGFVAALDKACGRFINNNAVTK
Briefly: Naive Library Presenter Screening (phage, NGS), CUL1. Format: binding. The settings on record: for interaction data at Target Concentration 10: CUL1 target concentration 10 nM; for interaction data at Target Concentration 30: CUL1 target concentration 30 nM; for interaction data at Target Concentration 100: CUL1 target concentration 100 nM; for interaction data at Target Concentration 300: CUL1 target concentration 300 nM; for interaction data at Target Concentration 1000: CUL1 target concentration 1000 nM.

For DPAERHCQLAAWVCHQF, in the test with CUL4B, the “interaction data at Target Concentration 10” value came out at 0, the “interaction data at Target Concentration 30” value is listed as 0, the “interaction data at Target Concentration 100” value is given as 0 and the “interaction data at Target Concentration 300” value was 99. The “interaction data at Target Concentration 1000” value with CUL4B (first column) came out at 29. Moreover, in the test with CUL4B (second column), the “interaction data at Target Concentration 1000” value was found to be 0.

DPAEFVCDWAALACLVD: in the test with CUL1, the “interaction data at Target Concentration 10” value is recorded as 4, the “interaction data at Target Concentration 30” value stood at 32, the “interaction data at Target Concentration 100” value turned out to be 183 and the “interaction data at Target Concentration 300” value is reported as 247. For the same sequence, the “interaction data at Target Concentration 1000” value with CUL1 (first column) turned out to be 517. Also, in the test with CUL1 (second column), the “interaction data at Target Concentration 1000” value is reported as 300.

On to DPADRYCDMAAWVCERF, for which, in the test with CUL4B, the “interaction data at Target Concentration 10” value was 1, the “interaction data at Target Concentration 30” value was 1, the “interaction data at Target Concentration 100” value worked out at 15 and the “interaction data at Target Concentration 300” value came to 248. The “interaction data at Target Concentration 1000” value with CUL4B (first column) is recorded as 340. Besides, in the test with CUL4B (second column), the “interaction data at Target Concentration 1000” value worked out at 0.

With DPADRLCELAAWVCQSF, in the test with CUL4B, the “interaction data at Target Concentration 10” value turned out to be 0, the “interaction data at Target Concentration 30” value worked out at 0, the “interaction data at Target Concentration 100” value is reported as 0 and the “interaction data at Target Concentration 300” value is recorded as 48. Besides, the “interaction data at Target Concentration 1000” value in the test with CUL4B (first column) is 9. Also, in the test with CUL4B (second column), the “interaction data at Target Concentration 1000” value is reported as 0.

Take DPAYFACDIAALMCTVH: in the test with CUL1, the “interaction data at Target Concentration 10” value is 0, the “interaction data at Target Concentration 30” value is listed as 2, the “interaction data at Target Concentration 100” value is recorded as 131 and the “interaction data at Target Concentration 300” value is reported as 135. Moreover, the “interaction data at Target Concentration 1000” value with CUL1 (first column) worked out at 403. Further, the “interaction data at Target Concentration 1000” value in the test with CUL1 (second column) is listed as 120.

Consider DPATRHCIFAAWACDRF, for which, in the test with CUL4B, the “interaction data at Target Concentration 10” value is reported as 0, the “interaction data at Target Concentration 30” value came out at 0, the “interaction data at Target Concentration 100” value stood at 47 and the “interaction data at Target Concentration 300” value was 20. Besides, the “interaction data at Target Concentration 1000” value with CUL4B (first column) amounted to 12. The “interaction data at Target Concentration 1000” value with CUL4B (second column) is 0.

As to DPAVMECDWAATICDIF, in the test with CUL1, the “interaction data at Target Concentration 10” value turned out to be 0, the “interaction data at Target Concentration 30” value is recorded as 2, the “interaction data at Target Concentration 100” value is 154 and the “interaction data at Target Concentration 300” value came to 402. For the same sequence, the “interaction data at Target Concentration 1000” value with CUL1 (first column) worked out at 477. The “interaction data at Target Concentration 1000” value with CUL1 (second column) was 419.

Regarding DPADRQCIFAAWMCEAF, in the test with CUL4B, the “interaction data at Target Concentration 10” value is given as 0, the “interaction data at Target Concentration 30” value amounted to 0, the “interaction data at Target Concentration 100” value is listed as 3 and the “interaction data at Target Concentration 300” value worked out at 9. In the test with CUL4B (first column), the “interaction data at Target Concentration 1000” value is reported as 34. In addition, the “interaction data at Target Concentration 1000” value with CUL4B (second column) was 0.

Turning to DPAIIQCDQAALWCVVT, in the test with CUL1, the “interaction data at Target Concentration 10” value worked out at 0, the “interaction data at Target Concentration 30” value amounted to 0, the “interaction data at Target Concentration 100” value was 28 and the “interaction data at Target Concentration 300” value was determined as 83. The “interaction data at Target Concentration 1000” value with CUL1 (first column) is recorded as 80. Moreover, the “interaction data at Target Concentration 1000” value with CUL1 (second column) is reported as 61.

As for DPAEAACDIAALMCIID, in the test with CUL1, the “interaction data at Target Concentration 10” value was determined as 15, the “interaction data at Target Concentration 30” value is 13, the “interaction data at Target Concentration 100” value is 65 and the “interaction data at Target Concentration 300” value is on record as 211. Besides, the “interaction data at Target Concentration 1000” value in the test with CUL1 (first column) is 203. Moreover, the “interaction data at Target Concentration 1000” value with CUL1 (second column) is listed as 195.

Regarding DPAYDWCDVAALFCLVE, in the test with CUL1, the “interaction data at Target Concentration 10” value was 0, the “interaction data at Target Concentration 30” value is given as 0, the “interaction data at Target Concentration 100” value is 57 and the “interaction data at Target Concentration 300” value is 36. Also, the “interaction data at Target Concentration 1000” value with CUL1 (first column) came to 57. In addition, the “interaction data at Target Concentration 1000” value with CUL1 (second column) stood at 151.

DPATRMCELAAWTCEVW: in the test with CUL4B, the “interaction data at Target Concentration 10” value turned out to be 0, the “interaction data at Target Concentration 30” value is listed as 0, the “interaction data at Target Concentration 100” value was determined as 1 and the “interaction data at Target Concentration 300” value was determined as 31. The “interaction data at Target Concentration 1000” value with CUL4B (first column) is recorded as 9. Further, the “interaction data at Target Concentration 1000” value in the test with CUL4B (second column) was found to be 0.

In the case of DPAQNDCEVAAFFCWLD, in the test with CUL1, the “interaction data at Target Concentration 10” value was 1, the “interaction data at Target Concentration 30” value is 1, the “interaction data at Target Concentration 100” value is reported as 233 and the “interaction data at Target Concentration 300” value was determined as 428. Also, in the test with CUL1 (first column), the “interaction data at Target Concentration 1000” value was 586. Besides, the “interaction data at Target Concentration 1000” value with CUL1 (second column) is reported as 468.

In the case of DPAMLQCDMAALWCMVS, in the test with CUL1, the “interaction data at Target Concentration 10” value is given as 1, the “interaction data at Target Concentration 30” value was 3, the “interaction data at Target Concentration 100” value was found to be 77 and the “interaction data at Target Concentration 300” value was found to be 64. Also, the “interaction data at Target Concentration 1000” value with CUL1 (first column) is on record as 143. In addition, the “interaction data at Target Concentration 1000” value with CUL1 (second column) is reported as 126.

As to DPADRWCELAAWICDEF, in the test with CUL4B, the “interaction data at Target Concentration 10” value was determined as 0, the “interaction data at Target Concentration 30” value is 0, the “interaction data at Target Concentration 100” value was found to be 0 and the “interaction data at Target Concentration 300” value is reported as 6. For the same sequence, the “interaction data at Target Concentration 1000” value in the test with CUL4B (first column) is 17. In the test with CUL4B (second column), the “interaction data at Target Concentration 1000” value is listed as 0.

DPADRQCLFAAWYCEHT: in the test with CUL4B, the “interaction data at Target Concentration 10” value worked out at 0, the “interaction data at Target Concentration 30” value is reported as 10, the “interaction data at Target Concentration 100” value is listed as 0 and the “interaction data at Target Concentration 300” value is on record as 6. The “interaction data at Target Concentration 1000” value with CUL4B (first column) is 11. In the test with CUL4B (second column), the “interaction data at Target Concentration 1000” value stood at 2.

With DPASRMCEMAAWFCENY, in the test with CUL4B, the “interaction data at Target Concentration 10” value is on record as 0, the “interaction data at Target Concentration 30” value was 3, the “interaction data at Target Concentration 100” value was found to be 11 and the “interaction data at Target Concentration 300” value turned out to be 13. The “interaction data at Target Concentration 1000” value with CUL4B (first column) turned out to be 78. For the same sequence, in the test with CUL4B (second column), the “interaction data at Target Concentration 1000” value is on record as 0.

With DPAMNHCVLAAWVCDTF, in the test with CUL4B, the “interaction data at Target Concentration 10” value is listed as 0, the “interaction data at Target Concentration 30” value was 0, the “interaction data at Target Concentration 100” value is given as 6 and the “interaction data at Target Concentration 300” value is reported as 37. Besides, the “interaction data at Target Concentration 1000” value in the test with CUL4B (first column) was 9. Besides, the “interaction data at Target Concentration 1000” value with CUL4B (second column) worked out at 0.

For the sequence DPASRLCELAAWVCDSF, in the test with CUL4B, the “interaction data at Target Concentration 10” value is listed as 4, the “interaction data at Target Concentration 30” value is 15, the “interaction data at Target Concentration 100” value stood at 139 and the “interaction data at Target Concentration 300” value is 319. For the same sequence, the “interaction data at Target Concentration 1000” value with CUL4B (first column) was 251. Besides, the “interaction data at Target Concentration 1000” value in the test with CUL4B (second column) stood at 0.

DPAQRACQFAAWICERF: in the test with CUL4B, the “interaction data at Target Concentration 10” value was found to be 1, the “interaction data at Target Concentration 30” value is 0, the “interaction data at Target Concentration 100” value turned out to be 13 and the “interaction data at Target Concentration 300” value turned out to be 56. For the same sequence, in the test with CUL4B (first column), the “interaction data at Target Concentration 1000” value came out at 73. Also, in the test with CUL4B (second column), the “interaction data at Target Concentration 1000” value stood at 0.
